Among the data in paper doi:10.64898/2025.12.10.692585 are stoichiometry N values, retold here.

For orientation: stoichiometry N means the number of molecules, sites or subunits per partner or assembly.

The experiment has as its target Porcine RNA polymerase II, purified (porcine) (UniProt I3LGP4). Kind of experiment: mass photometry.

On to “Porcine RNA polymerase II, purified (from UniProt I3LGP4 127-1300; P60899 1-125; A0A4X1VYD0 1-67; A0A8D0JYF1 1-58) (complex)”, for which the stoichiometry N is 2.
